Holding throughout (assay): cytokine release
The target in experiment [1] is T1, p53 wild type peptide on HLA-DRA*01:01 / HLA-DRB1*01:01 (human).
T1 peptide: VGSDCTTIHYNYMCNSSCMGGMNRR

In experiment [2] the target is T2, p53 C135Y peptide on HLA-DPA1*01:03 / HLA-DPB1*11:01 (human).
T2 peptide: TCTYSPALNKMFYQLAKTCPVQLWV

In experiment [3] the target is T3, p53 C135Y peptide on HLA-DRA*01:01 / HLA-DRB3*01:01 (human).
T3 peptide: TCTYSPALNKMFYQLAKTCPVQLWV

The target in experiment [4] is T4, p53 C135Y peptide on HLA-DPA1*01:03 / HLA-DPB1*02:01 (human).
T4 peptide: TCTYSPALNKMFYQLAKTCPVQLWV

Experiment [5] has as its target T5, p53 C135Y peptide on HLA-DPA1*02:01 / HLA-DPB1*11:01 (human).
T5 peptide: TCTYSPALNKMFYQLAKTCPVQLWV

The target of experiment [6] is T6, p53 C135Y peptide on HLA-DQA1*01:01 / HLA-DQB1*02:01 (human).
T6 peptide: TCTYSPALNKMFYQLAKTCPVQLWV

Experiment [7] addresses T7, p53 wild type peptide on HLA-DRA*01:01 / HLA-DRB1*07:01 (human).
T7 peptide: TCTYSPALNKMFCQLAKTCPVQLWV

Experiment [8] deals with T8, p53 C135Y peptide on HLA-DQA1*02:01 / HLA-DQB1*02:02 (human).
T8 peptide: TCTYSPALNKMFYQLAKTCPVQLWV

The target of experiment [9] is T9, p53 C135Y peptide on HLA-DPA1*02:01 / HLA-DPB1*02:01 (human).
T9 peptide: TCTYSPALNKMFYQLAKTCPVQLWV

For experiment [10], the target named is T10, p53 C135Y peptide on HLA-DQA1*02:01 / HLA-DQB1*02:01 (human).
T10 peptide: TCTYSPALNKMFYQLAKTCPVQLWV

Experiment [11] addresses T11, p53 C135Y peptide on HLA-DQA1*02:01 / HLA-DQB1*05:01 (human).
T11 peptide: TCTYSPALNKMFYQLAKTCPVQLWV

Experiment [12] has as its target T12, p53 C135Y peptide on HLA-DQA1*01:01 / HLA-DQB1*05:01 (human).
T12 peptide: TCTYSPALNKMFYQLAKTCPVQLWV

The target in experiment [13] is T13, p53 C135Y peptide on HLA-DQA1*01:01 / HLA-DQB1*02:02 (human).
T13 peptide: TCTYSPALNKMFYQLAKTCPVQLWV

Experiment [14] deals with T14, p53 C135Y peptide on HLA-DRA*01:01 / HLA-DRB1*07:01 (human).
T14 peptide: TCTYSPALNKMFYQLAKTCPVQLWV

Experiment [15] has as its target T15, p53 C135Y peptide on HLA-DQA*01:01 / HLA-DRB4*01:01 (human).
T15 peptide: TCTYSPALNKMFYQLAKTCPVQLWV

Experiment [16] concerns the target T16, p53 R175H peptide on HLA-B*44:03 (human).
T16 peptide: HMTEVVRHC

Experiment [17] deals with T17, p53 wild type peptide on HLA-A*02:01 (human).
T17 peptide: HMTEVVRRC

For experiment [18], the target named is T18, p53 R175H peptide on HLA-C*07:01 (human).
T18 peptide: HMTEVVRHC

For experiment [19], the target named is T19, p53 R175H peptide on HLA-C*04:01 (human).
T19 peptide: HMTEVVRHC

In experiment [20] the target is T20, p53 R175H peptide on HLA-B*08:01 (human).
T20 peptide: HMTEVVRHC

Experiment [21] has as its target T21, p53 R175H peptide on HLA-A*23:01 (human).
T21 peptide: HMTEVVRHC

The source of these data is US20240254190A1 (published 2024).

Where a chain is given by its changes, count along the chain named.

B1: 4304 TCR-2 (TCR, V domains shown)
Valpha: QSVSQHNHHVILSEAASLELGCNYSYGGTVNLFWYVQYPGQHLQLLLKYFSGDPLVKGIKGFEAEFIKSKFSFNLRKPSVQWSDTAEYFCAVTFMDTGRRALTFGSGTRLQVQP
Vbeta: GVSQSPSNKVTEKGKDVELRCDPISGHTALYWYRQSLGQGLEFLIYFQGNSAPDKSGLPSDRFSAERTGGSVSTLTIQRTQQEDSAVYLCASSPRGGDYEQYFGPGTRLTVT
Take B1: the binding result in experiment [1] is reported as “no recognition”.

B2: 4316-D TCR (TCR, V domains shown)
Valpha: QQVMQIPQYQHVQEGEDFTTYCNSSTTLSNIQWYKQRPGGHPVFLIQLVKSGEVKKQKRLTFQFGEAKKNSSLHITATQTTDVGTYFCAESYSGGYQKVTFGIGTKLQVIP
Vbeta: EPEVTQTPSHQVTQMGQEVILRCVPISNHLYFYWYRQILGQKVEFLVSFYNNEISEKSEIFDDQFSVERPDGSNFTLKIRSTKLEDSAMYFCASSSFSNEQFFGPGTRLTVL
For B2, the binding result in experiment [2], in [3], in experiment [4], in experiment [5], in experiment [6] and in experiment [7] was “no recognition” throughout. In addition, the binding result in experiment [8], in experiment [9], in [10], in experiment [11], in experiment [12] and in [13] was “no recognition” in each case. In addition, the binding result is recorded as “recognises” in [14] and “no recognition” in [15].

B3: 4141 IVS TCR (TCR, V domains shown)
Valpha: QTVTQSQPEMSVQEAETVTLSCTYDTSENNYYLFWYKQPPSRQMILVIRQEAYKQQNATENRFSVNFQKAAKSFSLKISDSQLGDTAMYFCAFMAYMEYGNKLVFGAGTILRVKS
Vbeta: B2 Vbeta with S94C, S95K, S96G, F97I, S98T, N99D, E100T, F102Y
Consider B3, for which the binding result in experiment [16], in experiment [17], in [18], in [19], in [20] and in experiment [21] was “no recognition” each time.

B4: 4304 TCR-4 (TCR, V domains shown)
Valpha: QKEVEQNSGPLSVPEGAIASLNCTYSDRGSQSFFWYRQYSGKSPELIMFIYSNGDKEDGRFTAQLNKASQYVSLLIRDSQPSDSATYLCAVRGGNTGFQKLVFGTGTRLLVSP
Vbeta: AVISQKPSRDICQRGTSLTIQCQVDSQVTMMFWYRQQPGQSLTLIATANQGSEATYESGFVIDKFPISRPNLTFSTLTVSNMSPEDSSIYLCSVRSEDTQYFGPGTRLTVL
On to B4, for which the binding result in experiment [1] is listed as “no recognition”.

B5: 4304 TCR-K (TCR, V domains shown)
Valpha: KDQVFQPSTVASSEGAVVEIFCNHSVSNAYNFFWYLHFPGCAPRLLVKGSKPSQQGRYNMTYERFSSSLLILQVREADAAVYYCAVSGYQLIWGAGTKLIIKP
Vbeta: GVAQSPRYKIIEKRQSVAFWCNPISGHATLYWYQQILGQGPKLLIQFQNNGVVDDSQLPKDRFSAERLKGVDSTLKIQPAKLEDSAVYLCASSLDRRGGRETQYFGPGTRLLVL
B5: the binding result in experiment [1] is “no recognition”.
